This note sets out measurements from patent US20150087812A1 (Janssen / Centocor, published 2015).

The target in experiment [1] is T1, recombinant human ATX beta isoform with N-terminal purification tag (human, UniProt Q13822 49-863). The experiment in a line: cell-based or functional assay.
The target in experiment [2] is recombinant mouse ATX beta isoform (R&D Systems, Cat No. 6187-EN-010) (mouse, UniProt Q9R1E6 36-862). Kind of experiment: cell-based or functional assay.
For experiment [3], the target named is T1, recombinant human ATX beta isoform with …. Kind of experiment: SPR Biacore 3000, His-ATX beta captured on anti-Penta-His, mAb as analyte, bivalent analyte model. As for the experimental part: (§1) Affinity measurements using surface plasmon resonance (SPR) were performed using a Biacore 3000 optical biosensor (Biacore) for ATXB3, ATXB6, ATXB8, ATXB9, ATXB13, and ATXB14. A biosensor surface was prepared by coupling anti-Penta-His antibody (Qiagen, Cat No. 34660) to the carboxymethylated dextran surface of a CM-5 chip (Biacore, Cat No. BR-1000-14) using the manufacturer instructions for amine-coupling chemistry. Approximately 15,000 RU (response units) of anti-Penta-His antibody were immobilized in each of four flow cells. The kinetic experiments were performed at 25° C. in running buffer (PBS+0.01% P20+100 ug/ml BSA). Serial dilutions of anti-ATX mAbs (ATXB3, B6, B8, B9, B13, B14) from 900 nM to 0.412 nM were prepared in running buffer. About 80 RU of human ATX beta-His tagged proteins were captured on flow cell 2 of the sensor chip. Flow cell 1 was used as reference surface. Capture of ATX was followed by five minutes injection (association phase) of anti-ATX mAbs at 50 uL/min, followed by 15 minutes of buffer flow (dissociation phase). The chip surface was regenerated by 15 seconds injection of 100 mM H₃PO₄ (Sigma, Cat No. 7961) at 50 uL/min. The collected data were processed using BIAevaluation software, version 3.2 (Biacore). First, double reference subtraction of the data was performed by subtracting the curves generated by buffer injection from the reference-subtracted curves for analyte injections. Then kinetic analysis of the data was performed using the Bivalent Analyte binding model with global fitting. Kd1 (Kₒₙ) was calculated as intrinsic KD with minimum avidity. The result for each mAb was reported in the format of Ka1 (On-rate, Kₒₙ), Kd1 (Off-rate, Koff) and KD1 (Equilibrium dissociation constant). Affinity measurements for ATXB18 were performed on a Proteon XPR36 system (Bio-Rad), using a protocol similar to the one used on the Biacore platform.
The five mAbs with the lowest IC50 values in the inhibition assays as well as ATXB3, a non-neutralizing antibody, were tested for their affinity to the human ATX-beta isoform, as measured by surface plasmon resonance. Due to nonspecific binding of the ATX antigen to the chip surface, these experiments had to be conducted in the reverse format, with ATX immobilized on the chip surface (ligand) and our antibodies in solution (analyte).

The target is the same in experiment [4]. Kind of experiment: SPR ProteOn XPR36, protocol similar to the Biacore one, bivalent analyte model. How it is done:
as §1, with “Affinity measurements for ATXB18 were performed on a Proteon XPR36 system (Bio-Rad), using a protocol similar to the one used on the Biacore platform.” left out
The five mAbs with the lowest IC50 values in the inhibition assays as well as ATXB3, a non-neutralizing antibody, were tested for their affinity to the human ATX-beta isoform, as measured by surface plasmon resonance. […]
Background: In SPR one partner is held on a chip, and binding of the other changes the refractive index at the surface.

B1: mAb ATXB9 (antibody, V domains shown)
VH: QVQLVQSGAEVKKPGSSVKVSCKASGGTFSSYAISWVRQAPGQGLEWMGGISPYFGNANYAQKFQGRVTITADESTSTAYMELSSLRSEDTAVYYCARYGDFGGNVFTEFDYWGQGTLVTVSS
VL: EIVLTQSPGTLSLSPGERATLSCRASQSVNNSDLAWYQQKPGQAPRLLIYTASSRATGIPDRFSGSGSGTDFTLTISRLEPEDFAVYYCQQATTVPLTFGQGTKVEIK
notes: Human IgG1/kappa from Fab F89
In general, koff refers to the rate constant with which the complex falls apart. One may read the kon as a measure of how fast the partners come together. Turning to B1, the “IC50, inhibition of LPC hydrolysis by human ATX beta (1.5 nM), coupled choline oxidation (Amplex Red) assay” value in experiment [1] is 14.5 nM. For the same molecule, the “IC50, inhibition of LPC hydrolysis by mouse ATX, coupled choline oxidation (Amplex Red) assay” value in experiment [2] was determined as 9.3 nM. Further, in experiment [3], the Kd was found to be 47.8 nM, the off-rate constant (koff) is 0.000322 s⁻¹ and the kon worked out at 3370 M⁻¹ s⁻¹.

B2: mAb ATXB18 (antibody, V domains shown)
VH: QVQLVQSGAEVKKPGSSVKVSCKASGGTFSSYAISWVRQAPGQGLEWMGGIIPIFGTANYAQKFQGRVTITADESTSTAYMELSSLRSEDTAVYYCARDASTYGDLDYWGQGTLVTVSS
VL: DIQMTQSPSSLSASVGDRVTITCRASQSIDGWLNWYQQKPGKAPKLLIYAASSLQSGVPSRFSGSGSGTDFTLTISSLQPEDFATYYCQQSYSTPLTFGQGTKVEIK
notes: Human IgG1/kappa from Fab F97
On to B2, for which, in experiment [4], the Kd was found to be 0.673 nM, the koff came out at 0.000614 s⁻¹ and the on-rate constant (kon) came out at 949000 M⁻¹ s⁻¹.
